Reference: patent US20240390497A1 (Stanford University, published 2024)

T1: human CD93/Fc fusion protein (human, UniProt Q9NPY3 22-580, limits assumed)
T1 construct: It was biotinylated or DyLight 650-conjugated for staining; also called CD93-Fc chimera protein; CD93-Fc biotinylated protein; not shown: Fc part
T1 sequence (looked up): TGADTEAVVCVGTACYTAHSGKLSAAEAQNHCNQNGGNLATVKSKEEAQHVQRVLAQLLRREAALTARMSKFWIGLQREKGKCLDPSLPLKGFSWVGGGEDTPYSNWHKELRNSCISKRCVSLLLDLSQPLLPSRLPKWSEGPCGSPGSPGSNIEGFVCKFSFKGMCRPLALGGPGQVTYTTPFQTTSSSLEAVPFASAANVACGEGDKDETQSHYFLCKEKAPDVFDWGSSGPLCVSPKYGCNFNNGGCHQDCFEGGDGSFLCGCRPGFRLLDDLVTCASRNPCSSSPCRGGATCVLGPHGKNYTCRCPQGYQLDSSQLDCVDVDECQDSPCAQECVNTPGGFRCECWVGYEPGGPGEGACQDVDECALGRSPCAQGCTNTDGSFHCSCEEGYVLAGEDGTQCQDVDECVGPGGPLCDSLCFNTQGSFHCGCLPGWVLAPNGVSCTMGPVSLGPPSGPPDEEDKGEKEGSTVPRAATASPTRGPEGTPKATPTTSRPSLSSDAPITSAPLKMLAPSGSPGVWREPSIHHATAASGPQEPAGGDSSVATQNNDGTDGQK

B1: humanized F11 monoclonal antibody (HuF11-G1) (antibody, V domains shown)
VH: QVQLVQSGAEVKKPGASVKVSCKASGYTFTDYHMDWVKQAPGQGLEWIGDIDPYNGDTVFNQKFKGKATMTRDTSISTAYMELSRLRSDDTAVYYCTRGGDYWGQGTLVTVSS
VL: DIVMTQTPLSLSVTPGQPASISCRSSQTLVHSNGNTYLHWYLQKPGQPPQLLIYKVSNRFSGVPDRFSGSGSGTDFTLKISRVEAEDVGVYFCSQSTHVPFTFGQGTKLEIK
notes: also called humanized F11 antibody
B2: humanized F11 monoclonal antibody (HuF11-G1 TM) (antibody, V domains shown)
VH: B1 VH
VL: B1 VL
notes: as for B1

Target: T1, human CD93/Fc fusion protein
Test: ELISA on coated human CD93/Fc, HRP anti-human kappa secondary, OD490
Procedure: FIGS. 2A-2O are sets of graphs illustrating that CD93-CAR T cells exert anti-leukemic effects against AML in vitro. FIG. 2A is a bar chart showing that humanized (“HuF11-G1” and “HuF11-G1 TM”) and chimeric F11 (“ChF11-G1”) monoclonal antibodies bind human CD93 with similar affinity. Human CD93/Fc fusion protein was coated in a 96-well plate and different concentrations of the antibodies as indicated were added. HRP-conjugated anti-human Kappa antibody was used as a secondary antibody. CD93 binding activity was measured by reading signals at OD490 […]. FIG. 2B is a cartoon showing the structure of CD93-28z and CD93-BBz CARs. […] Cells were fed with new media every 2-3 days, analyzed for transduction efficiency and phenotype on day 10-11, and processed for downstream experiments. FIG. 2D is a bar graph showing comparing transduction efficiency for each of aCAR molecule and control (“Mock”), measured by flow cytometry on day 10 after T cell activation. […] FIG. 2F is a set of graphs comparing expression levels of markers of T cell activation/exhaustion, including LAG-3, PD-1, TIM-3, and CD39, measured by flow cytometry on day 10 after T cell activation, prior to downstream experiments. […] FIG. 2G is a graph showing CD93 expression on AML cell lines, measured by flow cytometry after staining with biotinylated F11 antibody followed by streptavidin-APC. […]

Row | Binder | EC50 (read off the curve)
1 | B1 | ~0.03 µg/mL
2 | B2 | ~0.03 µg/mL
